Measured values published in publication PMC4827828, “Cupincin: A Unique Protease Purified from Rice (Oryza sativa L.) Bran Is a New Member of the Cupin Superfamily” (PLoS ONE, 2016).

Target: the molecule itself
Assay: SEC; analytical gel filtration on Progel-TSK W-3047 (HPLC), 0.1 M sodium phosphate buffer pH 7.0, 1 mL/min; calibrated with standards of 6.5-160 kDa; apparent mass 135.33 ± 3.5 kDa against 48.5 kDa from the sequence

B1: Cupincin (hypothetical protein OsI_13867) (enzyme, UniProt B8AL97 35-470, looked up)
chain: SRRGEREEEDERRRHGGEGGRPYHFGEESFRHWTRTRHGRFSVLERFPDEQVVGAAVGGYRVAVLEAAPRAFLQPSHYDADEVFYVKEGEGVIVLLREGRKESFCVREGDAMVIPAGAIVYSANTHSSKWFRVVMLLNPVSTPGHFEEYFPVGGDRPESFFSAFSDDVLQAAFNTRREELEKVFERQREGGEITTAPEEQIRELSKSCSRGGGGGSGSEWEIKPSSLTGKSPYFSNNHGKLFELTGDECRHLKKLDLQIGLANITRGSMIAPNYNTRATKLAVVLQGSGYFEMACPHVSGGGSSERREREREHGRRREEEQGEEEHGERGEKARRYHKVRAQVREGSVIVIPASHPATIVASEGESLAVVCFFVGANHDEKVFLAGRNSPLRQLDDPAKKLVFGGSAAREADRVLAAQPEQILLRGPHGRGSVSDM
notes: Cupincin, hypothetical protein OsI_13867 of Oryza sativa L., 436 residues and 48492.94 Da in the database entry; The native protein runs in SDS-PAGE as three polypeptides (about 34.5, 26.9 and 15.9 kDa) that all match OsI_13867; also called purified protease from rice bran; source: purified from rice bran (variety IR-64): ammonium sulphate fractionation (40-80%), Sephadex G-150
- stoichiometry N: 3
